Test results from patent publication US20260218138A1, “ENGINEERED ACYLTRANSFERASES HAVING ALTERED SUBSTRATE SPECIFICITY” (KEZBIOSOLUTIONS GMBH, priority 2022, published 2026).

B1: Mutant A05: engineered murine acyltransferase, mutation K186E (protein)
chain: NKRPLWFICSGMGTQWRGMGLSLMRLDSFRESILRSDEAVKPLGVKVSDLLLSTDERTFDDIVHAFVSLTAIQIALIDLLTSVGLKPDGIIGHSLGEVACGYADGCLSQREAVLAAYWRGQCIKDAHLPPGSMAAVGLSWEECKQRCPAGVVPACHNSEDTVTISGPQAAVNEFVEQLKQEGVFAEEVRTGGLAFHSYFMEGIAPTLLQALKKVIREPRPRSARWLSTSIPEAQWQSSLARTSSAEYNVNNLVSPVLFQEALWHIPEHAVVLEIAPHALLQAVLKRGVKSSCTIIPLMKRDHKDNLEFFLTNLGKVHLT
B2: Mutant A02: engineered murine acyltransferase, mutation T161Y (protein)
chain: NKRPLWFICSGMGTQWRGMGLSLMRLDSFRESILRSDEAVKPLGVKVSDLLLSTDERTFDDIVHAFVSLTAIQIALIDLLTSVGLKPDGIIGHSLGEVACGYADGCLSQREAVLAAYWRGQCIKDAHLPPGSMAAVGLSWEECKQRCPAGVVPACHNSEDYVTISGPQAAVNEFVEQLKQEGVFAKEVRTGGLAFHSYFMEGIAPTLLQALKKVIREPRPRSARWLSTSIPEAQWQSSLARTSSAEYNVNNLVSPVLFQEALWHIPEHAVVLEIAPHALLQAVLKRGVKSSCTIIPLMKRDHKDNLEFFLTNLGKVHLT
B3: Mutant A15: engineered murine acyltransferase, mutations K186E R300E (protein)
chain: NKRPLWFICSGMGTQWRGMGLSLMRLDSFRESILRSDEAVKPLGVKVSDLLLSTDERTFDDIVHAFVSLTAIQIALIDLLTSVGLKPDGIIGHSLGEVACGYADGCLSQREAVLAAYWRGQCIKDAHLPPGSMAAVGLSWEECKQRCPAGVVPACHNSEDTVTISGPQAAVNEFVEQLKQEGVFAEEVRTGGLAFHSYFMEGIAPTLLQALKKVIREPRPRSARWLSTSIPEAQWQSSLARTSSAEYNVNNLVSPVLFQEALWHIPEHAVVLEIAPHALLQAVLKRGVKSSCTIIPLMKEDHKDNLEFFLTNLGKVHLT
B4: Mutant A08: engineered murine acyltransferase, mutation K285D (protein)
chain: NKRPLWFICSGMGTQWRGMGLSLMRLDSFRESILRSDEAVKPLGVKVSDLLLSTDERTFDDIVHAFVSLTAIQIALIDLLTSVGLKPDGIIGHSLGEVACGYADGCLSQREAVLAAYWRGQCIKDAHLPPGSMAAVGLSWEECKQRCPAGVVPACHNSEDTVTISGPQAAVNEFVEQLKQEGVFAKEVRTGGLAFHSYFMEGIAPTLLQALKKVIREPRPRSARWLSTSIPEAQWQSSLARTSSAEYNVNNLVSPVLFQEALWHIPEHAVVLEIAPHALLQAVLDRGVKSSCTIIPLMKRDHKDNLEFFLTNLGKVHLT
B5: Mutant A04: engineered murine acyltransferase, mutations T161A F184A K186A R286A (protein)
chain: NKRPLWFICSGMGTQWRGMGLSLMRLDSFRESILRSDEAVKPLGVKVSDLLLSTDERTFDDIVHAFVSLTAIQIALIDLLTSVGLKPDGIIGHSLGEVACGYADGCLSQREAVLAAYWRGQCIKDAHLPPGSMAAVGLSWEECKQRCPAGVVPACHNSEDAVTISGPQAAVNEFVEQLKQEGVAAAEVRTGGLAFHSYFMEGIAPTLLQALKKVIREPRPRSARWLSTSIPEAQWQSSLARTSSAEYNVNNLVSPVLFQEALWHIPEHAVVLEIAPHALLQAVLKAGVKSSCTIIPLMKRDHKDNLEFFLTNLGKVHLT
B6: Mutant A11: engineered murine acyltransferase, mutation R300E (protein)
chain: NKRPLWFICSGMGTQWRGMGLSLMRLDSFRESILRSDEAVKPLGVKVSDLLLSTDERTFDDIVHAFVSLTAIQIALIDLLTSVGLKPDGIIGHSLGEVACGYADGCLSQREAVLAAYWRGQCIKDAHLPPGSMAAVGLSWEECKQRCPAGVVPACHNSEDTVTISGPQAAVNEFVEQLKQEGVFAKEVRTGGLAFHSYFMEGIAPTLLQALKKVIREPRPRSARWLSTSIPEAQWQSSLARTSSAEYNVNNLVSPVLFQEALWHIPEHAVVLEIAPHALLQAVLKRGVKSSCTIIPLMKEDHKDNLEFFLTNLGKVHLT
B7: Mutant A07: engineered murine acyltransferase, mutation K186D (protein)
chain: NKRPLWFICSGMGTQWRGMGLSLMRLDSFRESILRSDEAVKPLGVKVSDLLLSTDERTFDDIVHAFVSLTAIQIALIDLLTSVGLKPDGIIGHSLGEVACGYADGCLSQREAVLAAYWRGQCIKDAHLPPGSMAAVGLSWEECKQRCPAGVVPACHNSEDTVTISGPQAAVNEFVEQLKQEGVFADEVRTGGLAFHSYFMEGIAPTLLQALKKVIREPRPRSARWLSTSIPEAQWQSSLARTSSAEYNVNNLVSPVLFQEALWHIPEHAVVLEIAPHALLQAVLKRGVKSSCTIIPLMKRDHKDNLEFFLTNLGKVHLT
B8: Mutant A12: engineered murine acyltransferase, mutations K186D R300D (protein)
chain: NKRPLWFICSGMGTQWRGMGLSLMRLDSFRESILRSDEAVKPLGVKVSDLLLSTDERTFDDIVHAFVSLTAIQIALIDLLTSVGLKPDGIIGHSLGEVACGYADGCLSQREAVLAAYWRGQCIKDAHLPPGSMAAVGLSWEECKQRCPAGVVPACHNSEDTVTISGPQAAVNEFVEQLKQEGVFADEVRTGGLAFHSYFMEGIAPTLLQALKKVIREPRPRSARWLSTSIPEAQWQSSLARTSSAEYNVNNLVSPVLFQEALWHIPEHAVVLEIAPHALLQAVLKRGVKSSCTIIPLMKDDHKDNLEFFLTNLGKVHLT
B9: Mutant A03: engineered murine acyltransferase, mutations T161A F184A R286A (protein)
chain: NKRPLWFICSGMGTQWRGMGLSLMRLDSFRESILRSDEAVKPLGVKVSDLLLSTDERTFDDIVHAFVSLTAIQIALIDLLTSVGLKPDGIIGHSLGEVACGYADGCLSQREAVLAAYWRGQCIKDAHLPPGSMAAVGLSWEECKQRCPAGVVPACHNSEDAVTISGPQAAVNEFVEQLKQEGVAAKEVRTGGLAFHSYFMEGIAPTLLQALKKVIREPRPRSARWLSTSIPEAQWQSSLARTSSAEYNVNNLVSPVLFQEALWHIPEHAVVLEIAPHALLQAVLKAGVKSSCTIIPLMKRDHKDNLEFFLTNLGKVHLT
B10: Mutant A13: engineered murine acyltransferase, mutations K186D R300E (protein)
chain: NKRPLWFICSGMGTQWRGMGLSLMRLDSFRESILRSDEAVKPLGVKVSDLLLSTDERTFDDIVHAFVSLTAIQIALIDLLTSVGLKPDGIIGHSLGEVACGYADGCLSQREAVLAAYWRGQCIKDAHLPPGSMAAVGLSWEECKQRCPAGVVPACHNSEDTVTISGPQAAVNEFVEQLKQEGVFADEVRTGGLAFHSYFMEGIAPTLLQALKKVIREPRPRSARWLSTSIPEAQWQSSLARTSSAEYNVNNLVSPVLFQEALWHIPEHAVVLEIAPHALLQAVLKRGVKSSCTIIPLMKEDHKDNLEFFLTNLGKVHLT
B11: Mutant A14: engineered murine acyltransferase, mutations K186E R300D (protein)
chain: NKRPLWFICSGMGTQWRGMGLSLMRLDSFRESILRSDEAVKPLGVKVSDLLLSTDERTFDDIVHAFVSLTAIQIALIDLLTSVGLKPDGIIGHSLGEVACGYADGCLSQREAVLAAYWRGQCIKDAHLPPGSMAAVGLSWEECKQRCPAGVVPACHNSEDTVTISGPQAAVNEFVEQLKQEGVFAEEVRTGGLAFHSYFMEGIAPTLLQALKKVIREPRPRSARWLSTSIPEAQWQSSLARTSSAEYNVNNLVSPVLFQEALWHIPEHAVVLEIAPHALLQAVLKRGVKSSCTIIPLMKDDHKDNLEFFLTNLGKVHLT
B12: Mutant A01: engineered murine acyltransferase, mutation T161A (protein)
chain: NKRPLWFICSGMGTQWRGMGLSLMRLDSFRESILRSDEAVKPLGVKVSDLLLSTDERTFDDIVHAFVSLTAIQIALIDLLTSVGLKPDGIIGHSLGEVACGYADGCLSQREAVLAAYWRGQCIKDAHLPPGSMAAVGLSWEECKQRCPAGVVPACHNSEDAVTISGPQAAVNEFVEQLKQEGVFAKEVRTGGLAFHSYFMEGIAPTLLQALKKVIREPRPRSARWLSTSIPEAQWQSSLARTSSAEYNVNNLVSPVLFQEALWHIPEHAVVLEIAPHALLQAVLKRGVKSSCTIIPLMKRDHKDNLEFFLTNLGKVHLT
B13: Mutant A10: engineered murine acyltransferase, mutation R300D (protein)
chain: NKRPLWFICSGMGTQWRGMGLSLMRLDSFRESILRSDEAVKPLGVKVSDLLLSTDERTFDDIVHAFVSLTAIQIALIDLLTSVGLKPDGIIGHSLGEVACGYADGCLSQREAVLAAYWRGQCIKDAHLPPGSMAAVGLSWEECKQRCPAGVVPACHNSEDTVTISGPQAAVNEFVEQLKQEGVFAKEVRTGGLAFHSYFMEGIAPTLLQALKKVIREPRPRSARWLSTSIPEAQWQSSLARTSSAEYNVNNLVSPVLFQEALWHIPEHAVVLEIAPHALLQAVLKRGVKSSCTIIPLMKDDHKDNLEFFLTNLGKVHLT

Assay: Enzyme-coupled assay: transfer of acyl-moieties from MMal-CoA to the ACP
Assay type: biochemical
Details: substrate MMal-CoA, acceptor ACP from murine FAS
Procedure: An enzyme-coupled assay was performed to analyze the transfer of acyl-moieties from CoA to the ACP. Four solutions were prepared as 4× concentrated stocks in the assay buffer. Solution 1 contained the acyltransferase at the concentration range of 0.01 μM-10 μM, depending on the transfer kinetics to achieve good signal to noise ratios. Solution 2 contained the enzyme-coupled system including 8 mM α-ketoglutaric acid, 1.6 mM NAD+, 1.6 mM TPP and 60 mU/100 μL αKGDH. Solution 3 contained the methylmalonyl (MMal)-CoA at concentrations between 0.1 μM and 1,000 μM and solution 4 contained the ACP from murine FAS as a standalone protein at 240 μM. 5 μL of Solutions 1-3 were pipetted into a 384-well Small Volume HiBase Microplates (Greiner Bio-one) and mixed manually. The reactions were started by adding solution 4 with the dispenser system of the microplate reader (ClarioStar, BMG labtech). The reaction progress was recorded using the following settings: 348-20 nm; emission: 476-20 nm; gain: 1500; focal height: 11.9 mm; flashes: 17; orbital averaging: off.

First: B1
Second: B2
The Km of the first is 2.7-fold lower: 14.2 µM for the first, 38.8 µM for the second.

Going from B3 to B4, the Km falls from 58.4 µM to 0.11 µM (530-fold).

Compared with B5, B6 is 2.2-fold lower in Km: 7.24 µM for the first, 3.33 µM for the second.

Going from B7 to B8, the Km rises from 18.6 µM to 66.2 µM (3.6-fold).

Going from B9 to B10, the Km rises from 3.41 µM to 686 µM (200-fold).

Compared with B11, B12 is 150-fold lower in Km: 218 µM for the first, 1.47 µM for the second.

Work on B13 yielded a Km of 5.06 µM.

First: B1
Second: B2
The kcat of the first is 4.2-fold lower: 0.101 s⁻¹ for the first, 0.428 s⁻¹ for the second.

Compared with B3, B4 is 4.4-fold higher in kcat: 0.030 s⁻¹ for the first, 0.133 s⁻¹ for the second.

Compared with B5, B6 is 64-fold higher in kcat: 0.013 s⁻¹ for the first, 0.834 s⁻¹ for the second.

Compared with B7, B8 is 4.9-fold lower in kcat: 0.093 s⁻¹ for the first, 0.019 s⁻¹ for the second.

First: B9
Second: B10
The kcat of the first is 9-fold lower: 0.021 s⁻¹ for the first, 0.190 s⁻¹ for the second.

B11 and B12 are the same in kcat: 0.051 s⁻¹ for the first, 0.051 s⁻¹ for the second.

For B13, the kcat was 0.582 s⁻¹.
